This experiment deals with T1, Cynomolgus MUC1 his (Cat. # MU1-C52H5, Acro) (cynomolgus).
T1 construct: His-tagged, bought; also called Cyno MUC1-His
Briefly: SPR (Biacore T200), antibody captured on Protein A.

B1: M4-H1L1 (antibody, human IgG1, kappa)
heavy: not shown
light: DIQMTQSPSSLSASVGDRVTITCSASSSVFNMNWYQQKPGKSPKLWIYDISKLASGVPSRFSGSGSGTDFTLTISSLQPEDFATYYCQQRSFYPPTFGGGTKVEIKRTVAAPSVFIFPPSDEQLKSGTASVVCLLNNFYPREAKVQWKVDNALQSGNSQESVTEQDSKDSTYSLSSTLTLSKADYEKHKVYACEVTHQGLSSPVTKSFNRGEC
notes: humanized IgG1/kappa
As for B1, the Kd worked out at 18.9 nM.

B2: M4H1L1-ZalH4 (bispecific antibody, human IgG1, kappa)
heavy: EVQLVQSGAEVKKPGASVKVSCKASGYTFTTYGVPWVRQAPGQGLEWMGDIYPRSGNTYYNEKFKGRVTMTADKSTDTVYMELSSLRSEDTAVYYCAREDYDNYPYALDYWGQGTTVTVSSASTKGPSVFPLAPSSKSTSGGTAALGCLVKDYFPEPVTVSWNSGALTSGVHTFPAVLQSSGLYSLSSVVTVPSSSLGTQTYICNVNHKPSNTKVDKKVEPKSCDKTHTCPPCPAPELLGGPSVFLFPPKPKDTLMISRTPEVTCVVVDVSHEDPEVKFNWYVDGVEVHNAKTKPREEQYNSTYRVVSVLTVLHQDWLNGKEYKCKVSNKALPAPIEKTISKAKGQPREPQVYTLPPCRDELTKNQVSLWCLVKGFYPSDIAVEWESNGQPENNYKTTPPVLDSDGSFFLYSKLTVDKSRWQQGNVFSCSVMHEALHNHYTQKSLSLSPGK
light: B1 light
chain 1: not shown
chain 2: DIQLTQSPSSLSASVGDRVTITCRASQDISSALVWYQQKPGKAPKLLIYDASSLESGVPSRFSGSESGTDFTLTISSLQPEDFATYYCQQFNSYPLTFGGGTKVEIKGGGGSSGAPRFLTRPKASVVSVGKDATLSCQIVGNPFPQVSWEKDKQPVTAGVRFRLAQDGDLYRLKILDLQLSDSGQYVCRARNAHGEAFACLGLQVDAEA
The molecule B2 showed a Kd of 17.8 nM.

The record behind these values is patent EP4696711A1 (Jiangsu Hengrui Pharmaceuticals Co., Ltd., dated 2024).
